Measurements reported in US20110192416A1.

Molecular target: human hair (keratin-containing material) (human)
Experiment: Hair adherence test: His-tagged protein incubated with cut human hair, detected with anti-poly-histidine peroxidase conjugate and TMB; buffer background 0.05

absorption at 405 nm: 0.12 A405
Substance: comparable protein YaaD of B. subtilis with a His-tag (from UniProt P37527 1-294)
